Experimental data from the supplement of paper PMC10567573.

B1: STK38L (parent)
chain: NWKETLVFPPEVPISEKAKDLILR
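Also: lentivirally expressed fusions sorted by FACS into six bins by GFP to DsRed ratio, PSI derived from sequencing read proportions per bin multiplied by bin number.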

Variants of: B1
Assay: protein stability index of a GFP-peptide fusion (GPS, HEK-293T) (PSI 1-6); higher = more stable
Details: c terminus: a fixed tail appended
With NWKETLVFPPEVPISTKAKDLILR [E16T] the protein stability index was 2.6.
Variant NWKETLVFPPEVPISHKAKDLILR [E16H] has a protein stability index of 2.34.
With NWKETLVFPPEVPISFKAKDLILR [E16F] the protein stability index was 2.04.
NWKETLVFPPEVPISVKAKDLILR [E16V] gave a protein stability index of 3.14.
NWKETLVFPPEVPISNKAKDLILR [E16N] gave a protein stability index of 3.3.
With NWKETLVFPPEVPISDKAKDLILR [E16D] the protein stability index was 3.64.
With NWKETLVFPPEVPISMKAKDLILR [E16M] the protein stability index was 1.66.
In the case of NWKETLVFPPEVPISPKAKDLILR [E16P], the protein stability index is reported as 3.02.
With NWKETLVFPPEVPISYKAKDLILR [E16Y] the protein stability index was 2.5.
For NWKETLVFPPEVPISIKAKDLILR [E16I], the protein stability index was 2.14.
Work on NWKETLVFPPEVPISCKAKDLILR [E16C] yielded a protein stability index of 2.7.
For NWKETLVFPPEVPISRKAKDLILR [E16R], the protein stability index was 2.48.
In the case of NWKETLVFPPEVPISQKAKDLILR [E16Q], the protein stability index is reported as 2.43.
Variant NWKETLVFPPEVPISAKAKDLILR [E16A] has a protein stability index of 2.66.
For NWKETLVFPPEVPISSKAKDLILR [E16S], the protein stability index was 2.33.
Variant NWKETLVFPPEVPISKKAKDLILR [E16K] has a protein stability index of 2.17.
For NWKETLVFPPEVPISGKAKDLILR [E16G], the protein stability index was 2.31.
Work on NWKETLVFPPEVPISEKAKDYILR [L21Y] yielded a protein stability index of 2.71.
With NWKETLVFPPEVPISEKAKDEILR [L21E] the protein stability index was 4.66.
NWKETLVFPPEVPISEKAKDFILR [L21F] gave a protein stability index of 2.63.
With NWKETLVFPPEVPISEKAKDTILR [L21T] the protein stability index was 4.44.
With NWKETLVFPPEVPISEKAKDHILR [L21H] the protein stability index was 3.48.
Work on NWKETLVFPPEVPISEKAKDGILR [L21G] yielded a protein stability index of 3.81.
For NWKETLVFPPEVPISEKAKDAILR [L21A], the protein stability index was 3.35.
NWKETLVFPPEVPISEKAKDVILR [L21V] showed a protein stability index of 3.53.
NWKETLVFPPEVPISEKAKDNILR [L21N] gave a protein stability index of 3.56.
Work on NWKETLVFPPEVPISEKAKDDILR [L21D] yielded a protein stability index of 3.72.
Work on NWKETLVFPPEVPISEKAKDWILR [L21W] yielded a protein stability index of 2.58.
Work on NWKETLVFPPEVPISEKAKDQILR [L21Q] yielded a protein stability index of 3.41.
With NWKETLVFPPEVPISEKAKDRILR [L21R] the protein stability index was 3.62.
Work on NWKETLVFPPEVPISEKAKDCILR [L21C] yielded a protein stability index of 3.62.
NWKETLVFPPEVPISEKAKDSILR [L21S] gave a protein stability index of 3.72.
For NWKETLVFPPEVPISEKAKDPILR [L21P], the protein stability index was 3.69.
With NWKETLVFPPEVPISEKAKDIILR [L21I] the protein stability index was 3.27.
In the case of NWKETLVFPPEVPISEKAKDMILR [L21M], the protein stability index is reported as 3.42.
NWKETLVFPPEVPLSEKAKDLILR [I14L] gave a protein stability index of 2.88.
Work on NWKETLVFPPEVPKSEKAKDLILR [I14K] yielded a protein stability index of 4.07.
In the case of NWKETLVFPPEVPYSEKAKDLILR [I14Y], the protein stability index is reported as 2.1.
In the case of NWKETLVFPPEVPTSEKAKDLILR [I14T], the protein stability index is reported as 4.42.
With NWKETLVFPPEVPNSEKAKDLILR [I14N] the protein stability index was 3.38.
NWKETLVFPPEVPMSEKAKDLILR [I14M] gave a protein stability index of 3.77.
NWKETLVFPPEVPRSEKAKDLILR [I14R] gave a protein stability index of 3.44.
Variant NWKETLVFPPEVPWSEKAKDLILR [I14W] has a protein stability index of 2.05.
NWKETLVFPPEVPQSEKAKDLILR [I14Q] showed a protein stability index of 3.23.
Variant NWKETLVFPPEVPISEKAKDLMLR [I22M] has a protein stability index of 4.15.
With NWKETLVFPPEVPISEKAKDLRLR [I22R] the protein stability index was 4.04.
NWKETLVFPPEVPISEKAKDLKLR [I22K] gave a protein stability index of 3.66.
Variant NWKETLVFPPEVPISEKAKDLALR [I22A] has a protein stability index of 4.17.
With NWKETLVFPPEVPISEKAKDLPLR [I22P] the protein stability index was 4.36.
Variant NWKETLVFPPEVPISEKAKDLCLR [I22C] has a protein stability index of 3.07.
In the case of NWKETLVFPPEVPISEKAKDLTLR [I22T], the protein stability index is reported as 4.22.
For NWKETLVFPPEVPISEKAKDLNLR [I22N], the protein stability index was 3.62.
In the case of NWKETLVFPPEVPISEKAKDLFLR [I22F], the protein stability index is reported as 2.79.
With NWKETLVFPPEVPISEKAKDLQLR [I22Q] the protein stability index was 3.88.
NWKETLVFPPEVPISEKAKDLGLR [I22G] gave a protein stability index of 3.23.
With NWKETLVFPPEVPISEKAKDLDLR [I22D] the protein stability index was 4.43.
In the case of NWKETLVFPPEVPISEKAKDLSLR [I22S], the protein stability index is reported as 3.89.
In the case of NWKETLVFPPEVPISEKAKDLWLR [I22W], the protein stability index is reported as 3.42.
In the case of NWKETLVFPPEVPISEKAKDLHLR [I22H], the protein stability index is reported as 3.68.
With NWKETLVFPPEVPISEKAKDLYLR [I22Y] the protein stability index was 3.51.
With NWKETLVFPPEVPISEKAKDLELR [I22E] the protein stability index was 4.54.
For NWKETLVFPPEVPISEKAKDLLLR [I22L], the protein stability index was 3.21.
NWKETLVFPPEVPISEKAKDLVLR [I22V] showed a protein stability index of 3.06.
For NWKETLVFPPEVPISEKASDLILR [K19S], the protein stability index was 3.53.
With NWKETLVFPPEVPISEKARDLILR [K19R] the protein stability index was 2.96.
Variant NWKETLVFPPEVPISEKAHDLILR [K19H] has a protein stability index of 2.78.
Variant NWKETLVFPPEVPISEKAMDLILR [K19M] has a protein stability index of 2.19.
For NWKETLVFPPEVPISEKATDLILR [K19T], the protein stability index was 3.41.
NWKETLVFPPEVPISEKALDLILR [K19L] gave a protein stability index of 1.49.
NWKETLVFPPEVPISEKAEDLILR [K19E] gave a protein stability index of 3.77.
For NWKETLVFPPEVPISEKACDLILR [K19C], the protein stability index was 2.87.
In the case of NWKETLVFPPEVPISEKANDLILR [K19N], the protein stability index is reported as 3.07.
Work on NWKETLVFPPEVPISEKAFDLILR [K19F] yielded a protein stability index of 1.95.
Work on NWKETLVFPPEVPISEKAWDLILR [K19W] yielded a protein stability index of 2.26.
NWKETLVFPPEVPISEKAYDLILR [K19Y] gave a protein stability index of 2.29.
NWKETLVFPPEVPISEKAQDLILR [K19Q] showed a protein stability index of 2.86.
With NWKETLVFPPEVPISEKAADLILR [K19A] the protein stability index was 2.69.
NWKETLVFPPEVPISEKADDLILR [K19D] gave a protein stability index of 3.38.
NWKETLVFPPEVPISEKAGDLILR [K19G] showed a protein stability index of 2.96.
NWKETLVFPPEVPISEKAPDLILR [K19P] gave a protein stability index of 3.17.
NWKETLVFPPEVPISEKAIDLILR [K19I] gave a protein stability index of 2.01.
NWKETLVFPPEVPISEKCKDLILR [A18C] gave a protein stability index of 2.72.
With NWKETLVFPPEVPISEKVKDLILR [A18V] the protein stability index was 2.72.
With NWKETLVFPPEVPISEKMKDLILR [A18M] the protein stability index was 2.39.
For NWKETLVFPPEVPISEKTKDLILR [A18T], the protein stability index was 3.41.
Work on NWKETLVFPPEVPISEKHKDLILR [A18H] yielded a protein stability index of 2.54.
Work on NWKETLVFPPEVPISEKGKDLILR [A18G] yielded a protein stability index of 3.21.
For NWKETLVFPPEVPISEKDKDLILR [A18D], the protein stability index was 3.76.
In the case of NWKETLVFPPEVPISEKKKDLILR [A18K], the protein stability index is reported as 3.4.
With NWKETLVFPPEVPISEKYKDLILR [A18Y] the protein stability index was 2.45.
In the case of NWKETLVFPPEVPISEKNKDLILR [A18N], the protein stability index is reported as 3.38.
Variant NWKETLVFPPEVPISEKIKDLILR [A18I] has a protein stability index of 1.89.
Variant NWKETLVFPPEVPISEKWKDLILR [A18W] has a protein stability index of 2.65.
In the case of NWKETLVFPPEVPISEKSKDLILR [A18S], the protein stability index is reported as 3.32.
